According to patent US20100255012A1 (Genmab, published 2010):

How the values were obtained:
human C1q = molecular target: T1, human C1q (human, UniProt P02745 23-245; P02746 28-253; P02747 29-245); assay: ELISA, antibody coated, bound C1q detected with rabbit anti-human C1q
T1 construct: Bought human C1q; also called first component of the classical complement cascade
Description: In short, microtiter ELISA plates (Greiner, Germany) were coated overnight at RT with the test antibodies serially diluted from 10 μg/ml to 0.06 μg/ml in PBS. Plates were emptied and wells were blocked with 200 μl ELISA-diluent per well (0.1 M NaPO₄, 0.1 M NaCl, 0.1% gelatin and 0.05% Tween-20), at RT for 30 minutes. […] After washing the plates (3×) with PBST, wells were incubated with HRP-conjugated swine anti-rabbit IgG-Fc (DAKO, P0300, lot #069) diluted in ELISA diluent (1:2500, 100 μl/well, RT, 1 hour). Thereafter, plates were washed thrice and assays were developed with freshly prepared 1 mg/ml ABTS solution (ABTS: 2,2′-azino-bis[3-ethylbenzthiazoline-6-sulfonic acid]); 2 tablets of 5 mg in 10 ml ABTS buffer, Boehringer Mannheim, Ingelheim, Germany) at RT in the dark for 30 minutes. Absorbance was measured at 405 nm in an ELISA plate reader (Biotek Instruments Inc., Winooski, USA).

[1] = molecular target: the molecule itself; assay: gel filtration on Superdex 200 (eluted at about 70 kD); self-association of half-molecules
Description: Samples (100 μl) were applied to a Superdex 200 HR 10/30 column (Amersham Biosciences, Uppsala, Sweden), which was connected to a HPLC system (ÄKTA explorer) from Amersham Biosciences, Uppsala, Sweden. The column was first equilibrated in PBS. Fractions of 250 μl were collected, in which Bet v 1 specific IgG was measured using the antigen binding assay.
To test the antigen binding of the Bet v 1 specific antibodies, a sample of diluted antibody was incubated overnight at room temperature with 0.75 mg Protein-G sepharose (Amersham Biosciences, Uppsala, Sweden) in 750 μl PBS/AT (PBS supplemented with 0.3% BSA, 0.1% Tween-20, 0.05% NaN3) together with 50 μl diluted ¹²⁵I-labelled Bet v 1 or ¹²⁵I-labelled Fel d 1. […] After washing the Sepharose suspension with PBS-T (PBS supplemented with 0.1% Tween-20), the bound radioactivity was measured. The results were expressed as the amount of radioactivity relative to the amount added.

T1 sequence (P02745 23-245 limits assumed, chain 1 of 3): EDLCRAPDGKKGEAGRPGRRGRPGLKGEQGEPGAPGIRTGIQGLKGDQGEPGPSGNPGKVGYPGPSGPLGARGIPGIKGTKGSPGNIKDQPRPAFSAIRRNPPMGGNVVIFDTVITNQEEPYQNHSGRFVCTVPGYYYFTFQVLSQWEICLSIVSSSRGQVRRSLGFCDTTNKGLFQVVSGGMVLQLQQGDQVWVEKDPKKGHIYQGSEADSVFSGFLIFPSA
T1 sequence (P02746 28-253 limits assumed, chain 2 of 3): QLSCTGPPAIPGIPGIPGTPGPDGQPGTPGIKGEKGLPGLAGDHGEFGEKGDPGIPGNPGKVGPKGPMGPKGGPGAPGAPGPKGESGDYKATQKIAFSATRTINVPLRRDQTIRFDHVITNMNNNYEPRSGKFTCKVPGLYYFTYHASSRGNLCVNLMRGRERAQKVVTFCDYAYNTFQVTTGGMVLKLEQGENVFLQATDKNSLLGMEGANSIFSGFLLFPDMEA
T1 sequence (P02747 29-245 limits assumed, chain 3 of 3): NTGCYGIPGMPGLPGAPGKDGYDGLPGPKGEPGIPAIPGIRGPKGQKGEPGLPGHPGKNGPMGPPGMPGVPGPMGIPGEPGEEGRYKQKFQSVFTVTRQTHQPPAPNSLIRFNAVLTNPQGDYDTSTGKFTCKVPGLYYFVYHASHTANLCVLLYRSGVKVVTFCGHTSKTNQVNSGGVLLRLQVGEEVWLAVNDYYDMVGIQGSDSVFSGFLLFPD

binding result (human C1q) | Binder | binding result [1]
no binding | 7D8-HG (antibody, Half-molecule of one heavy and one light chain; also called HuMab 7D8-HG; hingeless IgG4 anti-CD20) heavy: EVQLVESGGGLVQPDRSLRLSCAASGFTFHDYAMHWVRQAPGKGLEWVSTISWNSGTIGYADSVKGRFTISRDNAKNSLYLQMNSLRAEDTALYYCAKDIQYGNYYYGMDVWGQGTTVTVSSASTKGPSVFPLAPCSRSTSESTAALGCLVKDYFPEPVTVSWNSGALTSGVHTFPAVLQSSGLYSLSSVVTVPSSSLGTKTYTCNVDHKPSNTKVDKRVAPEFLGGPSVFLFPPKPKDTLMISRTPEVTCVVVDVSQEDPEVQFNWYVDGVEVHNAKTKPREEQFNSTYRVVSVLTVLHQDWLNGKEYKCKVSNKGLPSSIEKTISKAKGQPREPQVYTLPPSQEEMTKNQVSLTCLVKGFYPSDIAVEWESNGQPENNYKTTPPVLDSDGSFFLYSRLTVDKSRWQEGNVFSCSVMHEALHNHYTQKSLSLSLGK light: not shown | 
 | Betv1-HG (antibody, V domains shown, Half-molecule of one heavy and one light chain; also called anti-Betv1-HG; hingeless IgG4 anti-Bet v 1) VH: EVQLQQSGAELVKPGASVKLSCTASGFNIKDTYIHWVKQRPEQGLEWVGRIDPATGNTRYDPKFQGKATITADTSSNTAYLQLSSLTSEDTAVYYCASFRPGYALDYWGQGTSVTVSS VL: DIVMTQSHKFMSTSVGDRVSFTCKASQDVFTAVAWYQQKPGQSPKLLIYWASTRRTGVPDRFTGSGSGTDYTLTISSVQAEDLALYYCQQHFSTPPTFGGGTKLEIKR | no binding
